{"source": "paper PMC4843846", "about": "“Towards “bionic” proteins: replacement of continuous sequences from HIF-1α with proteomimetics to create functional p300 binding HIF-1α mimics” (Chemical Communications (Cambridge, England), 2016)", "key": {"[1]": {"target": "T1, p300 (Homo sapiens, UniProt Q09472)", "assay": "fluorescence anisotropy direct binding to p300", "design": "made in house", "settings": "fluorescein-labelled conjugates", "method": "The hybrids 2 and 3a–c were then tested in a previously described fluorescence anisotropy p300/HIF-1α competition and p300 binding assays respectively (Fig. 2a).[33]\nFig. 2 Biophysical screening of HIF-1α peptides and hybrids, HIF-1α794–826, 2 and 3a–c (a) fluorescence anisotropy (FA) competition data for inhibition of p300/FITC-HIF-1α C-TAD for HIF-1α794–826 and 2 (b) (FA) binding data for 3a–c to p300 (schematic structure shown below).\nBinding assays and protein expression were carried out as previously reported. 2, 3\nThe helix 2-3 peptide and the helix 2-extended peptide were purchased from Proteogenix,\nFrance and the sequences shown below.\n(1 picture or pasted object on this page, not shown here)"}, "[2]": {"tested_on": "p53/hDM2 interaction", "assay": "fluorescence anisotropy competition assay p53/hDM2", "format": "binding", "from_the_text": "At first the lower inhibitory potency of both HIF-1α794–826 and hybrid 2 in comparison to helix mimetic 1 (9.2(±0.9) μM) which we determined previously,[33] might seem counterintuitive. One explanation that might account for this observation is that there may be a non-specific component to PPI inhibition associated with the aromatic oligoamide helix mimetic 1 (supported in part by a non-unity Hill co-efficient for the curve fitting, a property not observed for 2). […] We therefore performed further biophysical analysis. Although we illustrated previously that inhibition of HIF-1α/p300 by 1 was specific to the scaffold and selective in comparison to the eIF4E/4G interaction,[33] we expanded the range of assays here. […] Thus, by adding native amino acid residues from the HIF-1α sequence to the core helix mimetic 1 in hybrid 2, the specificity and selectivity of binding towards target interactions was improved.\nFig. 3 Biophysical screening of helix mimetic 1 and hybrid 2 to profile selectivity; FA competition data for inhibition of p53/hDM2."}, "[3]": {"target": "T2, HIF-1α/p300 interaction (Homo sapiens, UniProt Q09472)", "T2 construct": "made in house", "T2 sequence (Q09472 330-420 limits assumed)": "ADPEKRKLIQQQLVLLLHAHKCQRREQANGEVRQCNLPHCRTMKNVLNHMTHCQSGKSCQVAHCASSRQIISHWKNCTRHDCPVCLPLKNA", "design": "method as in 2 sources, ref 33 = [33]; PMID 24782431; doi:10.1002/cbic.201400009; Burslem G. M. Kyle H. F. Breeze A. L. Edwards T. A. Nelson A. Warriner S. L. Wilson A. J. ChemBioChem 2014 15 1083 1087 24782431 10.1002/cbic.201400009 PMC4159589 ||| ref 32 = [32]; PMID 26135796; doi:10.1039/c5mb00284b; Kyle H. F. Wickson K. F. Stott J. Burslem G. M. Breeze A. L. Tiede C. Tomlinson D. C. Warriner S. L. Nelson A. Wilson A. J. Edwards T. A. Mol. BioSyst. 2015 11 2738 2749 26135796 10.1039/c5mb00284b", "settings": "fluorescence anisotropy competition; prior truncation studies; read-out: IC50, inhibition of the HIF-1α/p300 interaction by HIF-1α peptides; cited from earlier work"}, "[4]": {"target": "T1, p300", "assay": "fluorescence anisotropy", "settings": "cited from earlier work"}, "[5]": {"target": "T1, p300", "design": "made in house", "settings": "fluorescence anisotropy direct binding; cited from earlier work", "from_the_text": "A requirement for optimal linker length is supported by the fact that as the length of the PEG linker in 3a–c increases, so does binding affinity. In spite of the weaker binding affinities observed for 3a–c, the weak binding for HIF794–804 (helix 2) and HIF816– ..."}, "[6]": {"target": "T1, p300", "assay": "fluorescence anisotropy competition", "settings": "cited from earlier work"}, "[7]": {"target": "HIF-1α C-TAD 794-826 (Homo sapiens) (UniProt Q16665)", "assay": "fluorescence anisotropy", "settings": "cited from earlier work"}}, "note": "Where two headings read alike, the source gives them in different places. Starred links: 1 amine or outer side, 2 acyl side, 3 side chain; linkers in the order of their positions; H or OH if unused. Non-standard residues stand in square brackets, D forms with d. Residues, ends and D or L forms follow the SMILES beside them. No end group written: not given here. *: point of attachment. PEG24 = NCCOCCOCCOCCOCCOCCOCCOCCOCCOCCOCCOCCOCCOCCOCCOCCOCCOCCOCCOCCOCCOCCOCCOCCOCCC(=O)O; FITC = O=C1OC2(c3ccc(O)cc3Oc3cc(O)ccc32)c2ccc(NC(=S)*)cc21; PEG12 = NCCOCCOCCOCCOCCOCCOCCOCCOCCOCCOCCOCCOCCC(=O)O; 4Abz(3-OiBu) = CC(C)COc1cc(C(=O)[*:2])ccc1N[*:1]; PEG8 = NCCOCCOCCOCCOCCOCCOCCOCCOCCC(=O)O; X1 = CC(C)Oc1cc(C(=O)[*:2])ccc1N[*:1]; Ahx = NCCCCCC(=O)O"}
{"compound": "CC(C)C[C@H](NC(=O)[C@H](C)NC(=O)[C@H](CCCNC(=N)N)NC(=O)[C@H](CC(C)C)NC(=O)[C@H](CC(C)C)NC(=O)[C@H](CCC(=O)O)NC(=O)[C@H](CCC(=O)O)NC(=O)CCOCCOCCOCCOCCOCCOCCOCCOCCNC(=O)[C@H](C)NC(=O)[C@H](CC(N)=O)NC(=O)[C@@H](NC(=O)[C@H](CCC(=O)O)NC(=O)[C@H](CS)NC(=O)[C@H](CC(=O)O)NC(=O)[C@H](Cc1ccc(O)cc1)NC(=O)[C@H](CO)NC(=O)[C@@H](NC(=O)[C@H](CC(C)C)NC(=O)[C@H](CCC(N)=O)NC(=O)CCCCCNC(=S)Nc1ccc2c(c1)C(=O)OC21c2ccc(O)cc2Oc2cc(O)ccc21)[C@@H](C)O)C(C)C)C(=O)N[C@@H](CC(=O)O)C(=O)N[C@@H](CCC(N)=O)C(=O)N[C@H](C(=O)N[C@@H](CC(N)=O)C(N)=O)C(C)C", "note": "[3a] ({FITC-Ahx}-QLTSYDCEVNA[PEG8]EELLRALDQVN-NH2)", "values": [{"measurement": "Kd", "setting": "[1]", "value": "> 200", "unit": "µM"}]}
{"compound": "CC(C)C[C@H](NC(=O)[C@H](C)NC(=O)[C@H](CCCNC(=N)N)NC(=O)[C@H](CC(C)C)NC(=O)[C@H](CC(C)C)NC(=O)[C@H](CCC(=O)O)NC(=O)[C@H](CCC(=O)O)NC(=O)CCOCCOCCOCCOCCOCCOCCOCCOCCOCCOCCOCCOCCNC(=O)[C@H](C)NC(=O)[C@H](CC(N)=O)NC(=O)[C@@H](NC(=O)[C@H](CCC(=O)O)NC(=O)[C@H](CS)NC(=O)[C@H](CC(=O)O)NC(=O)[C@H](Cc1ccc(O)cc1)NC(=O)[C@H](CO)NC(=O)[C@@H](NC(=O)[C@H](CC(C)C)NC(=O)[C@H](CCC(N)=O)NC(=O)CCCCCNC(=S)Nc1ccc2c(c1)C(=O)OC21c2ccc(O)cc2Oc2cc(O)ccc21)[C@@H](C)O)C(C)C)C(=O)N[C@@H](CC(=O)O)C(=O)N[C@@H](CCC(N)=O)C(=O)N[C@H](C(=O)N[C@@H](CC(N)=O)C(N)=O)C(C)C", "note": "[3b] ({FITC-Ahx}-QLTSYDCEVNA[PEG12]EELLRALDQVN-NH2)", "values": [{"measurement": "Kd", "setting": "[1]", "value": "> 200", "unit": "µM"}]}
{"compound": "CC(C)C[C@H](NC(=O)[C@H](C)NC(=O)[C@H](CCCNC(=N)N)NC(=O)[C@H](CC(C)C)NC(=O)[C@H](CC(C)C)NC(=O)[C@H](CCC(=O)O)NC(=O)[C@H](CCC(=O)O)NC(=O)CCOCCOCCOCCOCCOCCOCCOCCOCCOCCOCCOCCOCCOCCOCCOCCOCCOCCOCCOCCOCCOCCOCCOCCOCCNC(=O)[C@H](C)NC(=O)[C@H](CC(N)=O)NC(=O)[C@@H](NC(=O)[C@H](CCC(=O)O)NC(=O)[C@H](CS)NC(=O)[C@H](CC(=O)O)NC(=O)[C@H](Cc1ccc(O)cc1)NC(=O)[C@H](CO)NC(=O)[C@@H](NC(=O)[C@H](CC(C)C)NC(=O)[C@H](CCC(N)=O)NC(=O)CCCCCNC(=S)Nc1ccc2c(c1)C(=O)OC21c2ccc(O)cc2Oc2cc(O)ccc21)[C@@H](C)O)C(C)C)C(=O)N[C@@H](CC(=O)O)C(=O)N[C@@H](CCC(N)=O)C(=O)N[C@H](C(=O)N[C@@H](CC(N)=O)C(N)=O)C(C)C", "note": "[3c] ({FITC-Ahx}-QLTSYDCEVNA[PEG24]EELLRALDQVN-NH2)", "values": [{"measurement": "Kd", "setting": "[1]", "value": 144, "unit": "µM"}]}
{"compound": "CC[C@H](C)[C@H](NC(=O)[C@@H]1CCCN1C(=O)[C@H](C)NC(=O)[C@H](CC(N)=O)NC(=O)[C@@H](NC(=O)[C@H](CCC(=O)O)NC(=O)[C@H](CO)NC(=O)[C@H](Cc1ccc(O)cc1)NC(=O)[C@H](CO)NC(=O)[C@@H](NC(=O)[C@H](CC(C)C)NC(=O)[C@H](CCC(N)=O)NC(C)=O)[C@@H](C)O)C(C)C)C(=O)N[C@@H](CCC(N)=O)C(=O)N[C@@H](CO)C(=O)N[C@@H](CCCNC(=N)N)C(=O)N[C@@H](CC(N)=O)C(=O)N[C@@H](CC(C)C)C(=O)N[C@@H](CC(C)C)C(=O)N[C@@H](CCC(N)=O)C(=O)NCC(=O)NCC(=O)Nc1ccc(C(=O)Nc2ccc(C(=O)Nc3ccc(C(=O)NCC(=O)O)cc3OC(C)C)cc2OCC(C)C)cc1OCC(C)C", "note": "[compound 2] (Ac-QLTSYSEVNAPIQSRNLLQGG[4Abz(3-OiBu)][4Abz(3-OiBu)][X1]G-OH)", "values": [{"measurement": "IC50", "setting": "[2]", "value": "> 100", "unit": "µM"}]}
{"compound": "Ac-LGQSMDESGLPQLTSYDCEVNAPIQGSRNLLQGEELLRALDQVN-NH2 [HIF-1α782–826, 42 residue HIF-1α C-TAD peptide]", "values": [{"measurement": "IC50", "setting": "[3]", "value": 0.59, "unit": "µM"}]}
{"compound": "Ac-QLTSYDCEVNAPIQGSRNLLQ-NH 2 (Ac-QLTSYDCEVNAPIQGSRNLLQ-NH2) [HIF-1α794–815, peptide comprising the same residues as the peptidic region of hybrid 2]", "values": [{"measurement": "IC50", "setting": "[3]", "value": "> 500", "unit": "µM"}]}
{"compound": "FITC-HIF-1α794-826 794-826 (from UniProt Q16665)", "values": [{"measurement": "Kd", "setting": "[4]", "value": 6.74, "unit": "µM"}]}
{"compound": "FITC-HIF-1α794–826: FITC-labelled HIF-1α794–826 peptide ({FITC}-QLTSYDCEVNAPIQGSRNLLQGEELLRALDQVN; UniProt Q16665 794-826, looked up, fragment)", "values": [{"measurement": "Kd", "setting": "[5]", "value": "6.74 ± 0.54", "unit": "µM"}]}
{"compound": "HIF-1α794-815 794-815 (from UniProt Q16665)", "values": [{"measurement": "IC50", "setting": "[6]", "value": "> 500", "unit": "µM"}]}
{"compound": "HIF-1α794-826 794-826 (from UniProt Q16665)", "values": [{"measurement": "IC50", "setting": "[6]", "value": 89, "unit": "µM"}]}
{"compound": "p300 (from UniProt Q09472)", "values": [{"measurement": "Kd", "setting": "[7]", "value": 6.74, "unit": "µM"}]}
